For two substances, stoichiometry N and Kd results are on record in PMC2528193.

Where “and” joins values, the source holds several entries; their conditions need not be identical. Equal values may be shown once.

Series [1] has as its target predicted processed PfHU (P. falciparum bacterial histone-like protein), recombinant (P. falciparum). Kind of series: cross-linking.
The target is the same in series [2]. The series can be described thus: SDS-resistant dimer on SDS-PAGE with anti-His Western blot. (A western blot detects proteins with antibodies after separation by electrophoresis.)
Series [3] deals with PfHUp (processed PfHU, bacterial histone-like protein) (Plasmodium falciparum). Kind of series: EMSA.

As usually defined, the stoichiometry N is a count of units in the complex or per binding partner. As for “predicted processed PfHU (P. falciparum bacterial histone-like protein), recombinant (domain or fragment)”, the stoichiometry N was 2 and 4 in series [1]; 2 in series [2].
In general, Kd refers to the free concentration of one partner at which half of the binding sites on the other are occupied at equilibrium, for simple one-to-one binding. In series [3], 30 bp probe came in with a Kd of 62.7 nM.
